One molecule from publication PMC7596504 (2020) can be followed below.

The target of the assay is T1, MORC4 ATPaseCW cassette (aa 29-486) (human, UniProt Q8TE76 29-486).
T1 chain: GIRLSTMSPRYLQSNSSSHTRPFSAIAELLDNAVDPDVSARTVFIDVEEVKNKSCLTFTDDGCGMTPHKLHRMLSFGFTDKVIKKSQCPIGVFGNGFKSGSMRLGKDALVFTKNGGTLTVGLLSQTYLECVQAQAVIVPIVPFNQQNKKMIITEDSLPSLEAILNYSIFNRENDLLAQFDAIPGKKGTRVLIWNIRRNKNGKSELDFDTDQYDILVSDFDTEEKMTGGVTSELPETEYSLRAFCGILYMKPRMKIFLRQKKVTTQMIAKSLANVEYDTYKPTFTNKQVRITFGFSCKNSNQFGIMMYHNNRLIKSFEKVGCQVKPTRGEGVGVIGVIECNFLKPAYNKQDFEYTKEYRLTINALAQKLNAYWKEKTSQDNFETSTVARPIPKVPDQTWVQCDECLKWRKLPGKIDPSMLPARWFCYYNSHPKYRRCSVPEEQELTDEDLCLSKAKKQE

B1: unmodified histone H3 peptide (aa 1-12 of H3) (peptide)
peptide: ARTKQTARKSTG
The Kd is the equilibrium constant for the complex coming apart. The molecule B1 displayed a Kd of 12 µM.
